{
  "source": "patent US20080227707A1",
  "about": "“BIOACTIVE PEPTIDES AND UNIQUE IRES ELEMENTS FROM MYELIN PROTEOLIPID PROTEIN PLP/DM20” (WAYNE STATE UNIVERSITY, priority 2002, published 2008)",
  "key": {"human 293 cell line": {"test_system": "human 293 cell line", "assay": "Colony formation assay after transfection and G418 selection", "assay_type": "cell-based", "details": "293 cells", "description": "Transfections were performed in 100×20 mm dishes using the Profection® Mammalian Transfection System—a calcium phosphate transfection kit (Promega, Madison, Wis.). Cells grown to 50-70% confluence were fed 3 hrs prior to addition of the calcium phosphate/DNA mixture. A standard transfection assay contained 15 μg of plasmid DNA, while double transfections were done with 10 μg of each plasmid (20 μg total). The culture medium was removed 24 hrs post transfection and cells were processed for microscopic analysis or passed for G418 or Hygromycin B selection 48 hrs post transfection.\nAll constitutive expression cell lines were isolated by selection with the G418 antibiotic. 24 hrs after cell passage (see above), transfected 293 and NT2 cells were treated with 500 μg/mL G418 (Invitrogen Life Technologies) in DMEM. The selection medium was changed every second day for 2-2.5 weeks, during which the majority of cells detach and G418 resistant colonies emerge. Depending upon the number and density of colonies, surviving cells were grown for 3-5 days in G418-free medium prior to subcloning. Once colonies reached the appropriate size, each plate was briefly examined for fluorescence, and colonies with the lowest number of nonfluorescent, contaminating cells were marked for subcloning. […]"}, "293 cells": {"test_system": "293 cells", "assay": "Viability of PIRP expressing cells during MG132-induced cellular stress and apoptosis (Trypan Blue exclusion)", "assay_type": "cell-based, human", "details": "293 control cells = 100%, not statistically significant, n=2", "description": "FIGS. 6A-6C are bar graphs showing growth factor activity associated with the PIRP-M and PIRP-L proteins. […] Colony number was determined after calcium phosphate transfection of 293 cells and G418 selection. The control plasmid was pBSII vector comprising the […] but no mammalian selectable marker. The PLP/DM20-GFP Pro-constructs are missing the CMV promoter and the PLP/DM20-GFP M1L vectors contain the Met^1 mutation and are unable to translate the full-length proteolipid proteins (see description of FIGS. 2B-2C). Increase in colony number following PIRP expression was highly stastically significant (Student's t-test). […] Pools of 293 cells derived from the transfectants (see above) were grown in toxic (50 μM) and subtoxic (25 μM) concentrations of MG132 for 24 hrs. Viable cells were identified using Trypan Blue exclusion. […] Subconfluent 293 cultures were treated with CM for 48 hrs and 72 hrs. Total and viable cell numbers were determined using Trypan Blue exclusion and expressed as % of control (293 cells treated with 293 CM) cell number.\nAlthough PIRP expression increased colony number, the biochemical mechanism of this response has yet to be defined. […] After 24 hrs, viable cells were counted (Trypan Blue exclusion) (FIG. 6B)."}, "[1]": {"test_system": "293, NT2, and 293-Tet-On cell lines", "assay": "Proteasome inhibition assay, MG132-induced cell death", "assay_type": "cell-based, human", "details": "50 μM MG132, 24 hrs", "description": "Proteasome inhibition assays were carried out in stably transfected cell lines using MG132 (Z-Leu-Leu-Leucinal)—a potent, cell permeable inhibitor of the 26S proteasomal complex (Calbiochem, San Diego, Calif.). The MG132 concentration in all experiments (50 μM) was sufficient to insure 100% cell death of all 293, NT2, and 293-Tet-On cell lines in 24 hrs.\nTo confirm that 293 and NT2 cultures undergo apoptosis within 24 hrs post treatment with 50 μM MG132, cells were assayed for poly(ADP-ribose) polymerase (PARP) cleavage by caspase-3. The 293 and NT2cultures were grown in 100 mm dishes to ˜90% confluence and passed at equal density into a six well tray. At 70-80% confluence, wells were treated with 50 μM MG132 in DMEM and harvested for proteins at 0.5 hrs, 1 hr, 2 hrs, 4 hrs, 6 hrs, and 24 hrs after treatment. The PARP cleavage products were resolved on 4% SDS PAGE gels. The Western blots were incubated with an anti-PARP (BIOMOL Research Laboratories) primary antibody diluted 1:2000 in 3% BSA, and a HRP conjugated goat anti-mouse secondary antibody (Amersham) diluted 1:2500 in 3% BSA."}},
  "note": "Peptide text beside a SMILES is read from it. * marks the point of attachment. Cbz = O=C(OCc1ccccc1)*",
  "data": [
    {"molecule": "PIRP-L: ~7 kDa polypeptide translated from Met234 of PLP/DM20 mRNA via IRES; SEQ ID NO:8 (MTFHLFIAAFVGAAATLVSLLTFMIAATYNFAVLKLMGRGTKF; listed as Homo sapiens)", "values": [
      {"measurement": "colony count in PIRP-L transfectants compared to PIRP-M transfectants", "setting": "human 293 cell line; p=0.02", "value": "increased colony count"},
      {"measurement": "cellular viability (viable cell number), % of control cell lines", "setting": "293 cells; MG132-treated, 25 μM and 50 μM, 24 hrs", "value": "small increase in viability"},
      {"measurement": "cellular viability (viable cell number), % of control cell lines", "setting": "293 cells; untreated cells", "value": "not detected"}
    ]},
    {"molecule": "CC(C)C[C@@H](C=O)NC(=O)[C@H](CC(C)C)NC(=O)[C@H](CC(C)C)NC(=O)OCc1ccccc1", "note": "[MG132, Z-Leu-Leu-Leucinal] (Cbz-Leu-Leu-Leu-aldehyde)", "values": [
      {"measurement": "cell death", "setting": "[1]", "value": 100, "unit": "%"}
    ]},
    {"molecule": "PIRP-M: ~10 kDa polypeptide translated from Met205 of PLP/DM20 mRNA via IRES; SEQ ID NO:6 (protein, listed as Homo sapiens) MYGVLPWNAFPGKVCGSNLLSICKTAEFQMTFHLFIAAFVGAAATLVSLLTFMIAATYNFAVLKLMGRGTKF", "values": [
      {"measurement": "increase in colony number over controls", "setting": "human 293 cell line; calcium phosphate transfection, G418 selection, colonies grown 2 weeks, vs pBSII PIRP-M control DNA lacking G418 resistance", "value": "600-700 fold"}
    ]}
  ]
}
